First the molecules themselves.
B1: SH14 (Fab, V domains shown)
VH: EVQLLESGGGVVQPGRSLRLSCAASGFTFSTYGMHWVRQAPGKGLEWVAVIWFDGSNKEYADSVKGRFTISRDNSKNTLYLQMNSLRAEDTAVYYCAREEVVRGVILWSRKFDYWGQGTLVTVSS
VL: AELTQSPSSLSASVGDRVTITCRASQNIRRSLNWYQHKPGRAPRLLIYAASTLQSGVPSRFRGSGSGTDFTLTINSLQPADFATYYCQQSSNTPWTFGHGTKVEIKR
notes: Fab on M13 phage
B2: SH25 (Fab, V domains shown)
VH: VQLLEESGGGVVQPGRSLRLACAASGFSFRSYGMHWVRQAPGRGLEWVAFTWFDGSNKYYVDSVKGRFTISRDNSKNTLYLEMNSLRVDDTAVYYCAREAPMLRGISRYYYAMDVWGPGTTVTVSS
VL: B1 VL with H37Q, R41K, R44K, T52S, R62S, N75S, A80E, H99Q
notes: Fab on M13 phage
B3: SH12 (Fab, V domains shown)
VH: B1 VH with I70V
VL: AELTQSPFSLSASVGDRVTITCRASHNIYRSLNWFQHKPGEAPKLLVYAASSLQRGVPTRFSGSGSGTDFTLTISSLQPEDSATYFCQQSVTFPYTFGQGTKLEIRR
notes: Fab on M13 phage
B4: SH21 (Fab, V domains shown)
VH: B1 VH with I70V
VL: AELTQSPSFLSASVGDRVTITCRASQGIRSYLAWYQQKPGKAPKLLIYAASTLQSGVPSRFSGSGSGTEFTLTIASLQPDDFATYYCQQLNNYPPFTFGPGTKVDIKR
notes: Fab on M13 phage
B5: SH04 (Fab, V domains shown)
VH: B1 VH
VL: B1 VL with H37Q, R41K, R44K, T52S, R62S, N75S, A80E, H99Q
notes: Fab on M13 phage
B6: SH26 (Fab, V domains shown)
VH: EVQLLESGGGVVQPGRSLRLSCVVSGFTFNNYGMHWVRQAPGKGLEWVAVIWFDGSNKYYADSVKGRFTISRDNSKNTLYLQMNSLRAEDTAVYYCARENQIKLWSRYLYYFDYWGQGTLVTVSS
VL: AELTQSPSSLSASVGDRVTITCRASQSISSYLNWYQQKPGKAPKLLIYAASSLQSGVPSRFSGSGSGTDFTLTISSLQPEDFATYYCQQSYSFRRYSFGQGTKLEIKR
notes: Fab on M13 phage
B7: SH34 (Fab, V domains shown)
VH: EVQLLESGGGVVQPGRSLRLSCAASGFSFSSYGMHWVRQAPGKGLEWVAVISYDGTNKYFADSVKGRFTISRDNSKKTLYLQMTSLRPEDTAVYFCANLRGEVTRRASVPLDIWGQGTMVTVSS
VL: B6 VL with S52G, F93T, R94P, R95P, S97T
notes: Fab on M13 phage
B8: SH20 (Fab, V domains shown)
VH: VQLLEESGGGVVQPGRSLRLSCAASGFTFRSYAMHWVRQAPGKGLEWVAVISYDGSTIYYADSVKGRFTISRANSKNTLFLQMNSLRTEDTAVYYCTRGGFYYDSSGYYGLRHYFDYWGQGTLVTVSS
VL: AELTQSPFSLSASVGDRVTITCRASQSISRSLNWYQHKPGEAPKLLIYAASSLQRGVPPRFSGSGSGTDFTLTISSLQPEDFATYFCQQSVRIPYSFGQGTKLEIKR
notes: Fab on M13 phage
B9: SH16 (Fab, V domains shown)
VH: EVQLLESGGGVVQPGRSLRLSCAASGFTFSSYGMHWVRQAPGRGLEWVALIWYDGGNKEYADSVKGRFSISRDNSKNTLYLQVNSLRADDTAVYYCARDQRAAAGIFYYSRMDVWGQGTTVTVSS
VL: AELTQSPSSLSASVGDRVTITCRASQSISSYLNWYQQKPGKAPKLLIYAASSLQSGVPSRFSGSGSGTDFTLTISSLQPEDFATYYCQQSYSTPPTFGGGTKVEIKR
notes: Fab on M13 phage
B10: SH18 (Fab, V domains shown)
VH: EVQLLESGGGVVQPGRSLRLSCAASGFTFRSYAMHWVRQAPGKGLEWVAATAYDGKNKYYADSVKGRFTISRDNSMNTLFLQMNSLRAEDTAVFYCARGGFYYDSSGYYGLRHYFDSWGQGTLVTVSS
VL: AELTQSPSSLSASVGDRVTITCRASQSISIALNWYQQRPGKAPKLLMYATSTLQSGVPSRFSGSGSGTDFTLTISSLQPEDFATYYCQQYYNKPTFGPGTKVDIKR
notes: Fab on M13 phage
B11: SH08 (Fab, V domains shown)
VH: EVQLLESGGGVVQPGRSLRLSCAVSGFTLTNYGMHWVRQAPGKGLEWVAHVWYDGSKTEYADSVKGRFAVSRDKSKNTLFLQMNSLTAEDTAIYYCARERREKVYILFYSWLDRWGQGTLVTVSS
VL: AELTQSPSSLAASVGDRVTITCRANQTIRTSLNWYQQRPGKAPNLLIYGASRLHSGVPSRFSGGISGADFTLTISSLQPEDFATYYCQQTYGYSRTFGQGTKVDIKR
notes: Fab on M13 phage; also called SH8
B12: SH30 (Fab, V domains shown)
VH: B11 VH
VL: AELTQSPSSLSASVGDRVTITCRASQSIRRSLNWYQQSPGKTPKLLIYAASSLQSGVPSRFSGSGSGTDFTLTISSLQPEDFATYYCQQSYSTLTFGGGTKVEIKR
notes: Fab on M13 phage
B13: SH28 (Fab, V domains shown)
VH: EVQLLESGGGGVQPGRSLRLSCAASGFTFNSYAMYWVRQPPGKGLEWVAAIWYDGSNKEYADFVKGRFTISRDNSKNTLSLQMNSLRDEDTAVYYCAREANLLRGWSRYYYGMDVWGQGTTVTVSS
VL: AELTQSPSSLSASVGDRVTITCRADQNIRRSLNWFQQKPGKAPKLLIYAASSLQSGVPSRFSGSGSGTDFTLTISSLQPEDFATYYCQQSSSTPWTFGRGTKVEIKR
notes: Fab on M13 phage
B14: SH50 (Fab, V domains shown)
VH: B13 VH
VL: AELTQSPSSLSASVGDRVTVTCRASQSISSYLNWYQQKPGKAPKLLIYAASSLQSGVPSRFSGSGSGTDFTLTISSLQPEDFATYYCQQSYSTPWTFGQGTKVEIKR
notes: Fab on M13 phage
B15: SH24 (Fab, V domains shown)
VH: EVQLLESGGGVAQPGRSLRLSCVASGFSLRSYGMHWVRQAPGKGLEWVADIWFDGSNKDYADSVKGRFTISRDNSKNTLYLQMNSLRAEDTAVYYCARDWRVRAFSSGWLSAFDIWGQGTMVTVSS
VL: AELTQSPSSLSASVGDRVTITCRASQSISTYLNWYQQRPGKAPNLLIYAASTLQRGVPSRFTGSGSGTDFTLTISSLQPEDFATYYCQQSYTTLWTFGQGTKMEIRR
notes: Fab on M13 phage
B16: SH32 (Fab, V domains shown)
VH: EVQLLESGGGVVQPGRSLRLSCEASKFTLYNYGMHWVRQAPGKGLEWVAFIWFDGSNKYYEDSVKGRFTVSRDNSKNTLYLQMNSLRAEDTAVYYCARELSKKVALSRYYYYMDVWGQGTTVTVSS
VL: AELTQEPSLTVSPGGTVTLTCASSTGAVTSRYFPNWFQQKPGQAPRALIYGSNNKHSWTPARFSGSLLGGKAALTLSGVQPEDEAEYYCLLFYAGAWAFGGGTKLTVL
notes: Fab on M13 phage
B17: SH37 (Fab, V domains shown)
VH: B16 VH
VL: AELQDPVVSVALGQTVKITCQGDSLRKYYASWYQQKPGQAPVLVFYARNSRPSGIPDRFSGSNSGTTASLTIAGARAEDEADYYCHSRDSNGHHRVFGGGTKLTVL
notes: Fab on M13 phage
B18: SH36 (Fab, V domains shown)
VH: B16 VH with L100G
VL: AELTQSPSSLSASVGDRVTITCRASQSISSYLNWYQQKPGKSPKLLIYAASSLQSGVPSRFSGSGSGTDFTLTISSLQPEDFATYYCQQSYSTPPAFGPGTKVDIKR
notes: Fab on M13 phage
B19: SH10 (Fab, V domains shown)
VH: VQLLEESGGGVVQPGRSLRLSCAASGFTFSRNGMHWVRQAPGKGLEWVAFIWFDGSNKYYADSVKGRFTISRDNSKNTLYLQMNSLRADDTAVYYCAREEALFRGLTRWSYGMDVWGQGTTVSVSS
VL: AELQDPVVSVALGQTVRITCQGDGLRSYYASWYQQKPGQAPKLVMYGRNNRPSGIPGRFSGSSSGQTAALTITGTQAEDEADYYCQSRATSGNPVVFGGGTKLTVL
notes: Fab on M13 phage

Numbering of substitutions follows the chain as printed.

This assay deals with T1, human Rh(D) antigen on Rh(D)-positive red blood cells (human, UniProt Q02161 2-417).
T1 construct: whole, on cells; also called wt; wild type Rh(D)
T1 sequence (looked up): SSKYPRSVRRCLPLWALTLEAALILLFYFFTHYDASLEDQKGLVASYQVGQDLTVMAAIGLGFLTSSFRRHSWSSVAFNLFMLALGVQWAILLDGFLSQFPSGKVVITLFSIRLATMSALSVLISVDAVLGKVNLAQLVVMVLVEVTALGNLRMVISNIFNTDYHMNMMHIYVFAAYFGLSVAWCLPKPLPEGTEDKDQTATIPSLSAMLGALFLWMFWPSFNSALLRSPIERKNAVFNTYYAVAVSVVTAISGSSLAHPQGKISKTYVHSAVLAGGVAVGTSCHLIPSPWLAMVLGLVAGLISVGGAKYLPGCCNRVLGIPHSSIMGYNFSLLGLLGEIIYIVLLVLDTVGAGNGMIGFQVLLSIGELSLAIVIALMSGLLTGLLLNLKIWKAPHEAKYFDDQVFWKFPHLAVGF
The experiment in a line: agglutination, anti-M13. As for the experimental part: The binding of anti-Rh(D) Fab/phage or soluble Fab molecules to normal or partial Rh(D) antigens was assessed by indirect agglutination assays as described (Siegel et al., 1994, Blood 83:2334; Siegel et al., 1997, J. Immunol. Meth. 206: 73). […] Following a one-hour incubation at 37° C., the RBCs were washed 3 times with 2 ml of cold PBS to remove unbound antibody. The resulting RBC pellets were resuspended in 100 μl of a 10 μg/ml solution of sheep anti-M13 antibody (5 Prime-3 Prime, Boulder, Colo.) for Fab/phage experiments or goat anti-human κ or λ light chain antibody (Tago, Burlingame, Calif.) for $\gamma_1\kappa$ or $\gamma_1\lambda$ soluble Fab experiments, respectively. The RBC suspensions were transferred to the round-bottomed wells of a 96-well microplate and left undisturbed for 2 hours. Negative reactions show sharp ~2 millimeter diameter RBC spots whereas the RBCs in agglutinated wells form a thin carpet coating the entire floor of the well (Siegel et al., 1997, J. Immunol. Meth. 206:73). Agglutination titers for recombinant antibodies were determined by performing serial 2-fold dilutions in 1% BSA/PBS.
Fifty-six randomly chosen colonies were selected, and monoclonal Fab/phage preparations were separately produced from each of these individual colonies, using the methods described herein in Example 1. Rh(D) specificity was determined by indirect agglutination using anti-M13 antibody, as described herein in Examples 1 and 2.
In the case of B1, the binding result is reported as “binds”.

As for B2, the binding result is recorded as “binds”.

In the case of B3, the binding result is “binds”.

With B4, the binding result is reported as “binds”.

With B5, the binding result is “binds”.

For B6, the binding result was “binds”.

As to B7, the binding result is reported as “binds”.

In the case of B8, the binding result is “binds”.

Turning to B9, the binding result was “binds”.

On to B10, for which the binding result was “binds”.

In the case of B11, the binding result is “binds”.

As for B12, the binding result was “binds”.

Regarding B13, the binding result is “binds”.

For the molecule B14, the binding result was “binds”.

Consider B15, for which the binding result was “binds”.

For the molecule B16, the binding result is listed as “binds”.

In the case of B17, the binding result is on record as “binds”.

With B18, the binding result was “binds”.

As to B19, the binding result is “binds”.

Source of the values: patent US8124742.
